In article PMC9357107 one finds Kd and stoichiometry N data, which are given here for two substances.

The target of assay [1] is insulin-like growth factor 2 (IGF-2) (human) (UniProt P01344). Description: SPR. In general terms: Surface plasmon resonance follows binding to a sensor surface in real time, without labels.
The target in assay [2] is insulin-like growth factor 1 (IGF-1) (human) (UniProt P05019). Description: SPR.
The target in assay [3] is linker domain of human IGFBP2 (L-hIGFBP2; residues A97-C191) (human). Nature of the assay: NMR titration.

UniProt P01344, sequence (P01344 25-91): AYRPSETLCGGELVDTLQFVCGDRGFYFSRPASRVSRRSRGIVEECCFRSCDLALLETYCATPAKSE

As for “linker domain of human IGFBP2 (L-hIGFBP2; residues A97-C191) (domain or fragment)”, the results for the Kd in assay [1] and in assay [2] were 3.7 µM and 4.1 µM, respectively.

For the substance “insulin-like growth factor 1 (IGF-1) (from UniProt P05019 49-118) (ligand)”, in assay [3], the stoichiometry N came out at 1.

For orientation: Kd means the concentration at which binding is half-saturated. Read a low Kd as tighter binding. For orientation: stoichiometry N means the number of molecules, sites or subunits per partner or assembly.
